Data published in paper doi:10.1101/805184 (bioRxiv, 2019).

B1: Arp9 (natural protein)
chain: MAPFRQDSILIIYPRSQTTLVQFGLNEETFTVPELEIPTQIYRTTRQDGSYTYHSTNKDNKAELIKPIQNGEIIDISAFTQFLRLIFVSILSDRANKNQDAFEAELSNIPLLLITHHSWSQSDLEIITQYVFESLEINNLIQLPASLAATYSMISLQNCCIIDVGTHHTDIIPIVDYAQLDHLVSSIPMGGQSINDSLKKLLPQWDDDQIESLKKSPIFEVLSDDAKKLSSFDFGNENEDEDEGTLNVAEIITSGRDTREVLEERERGQKVKNVKNSDLEFNTFWDEKGNEIKVGKQRFQGCNNLIKNISNRVGLTLDNIDDINKAKAVWENIIIVGGTTSISGFKEALLGQLLKDHLIIEPEEEKSKREEEAKSVLPAATKKKSKFMTNSTAFVPTIEYVQCPTVIKLAKYPDYFPEWKKSGYSEIIFLGAQIVSKQIFTHPKDTFYITREKYNMKGPAALWDVQF
B2: Arp7 (natural protein)
chain: MTLNRKCVVIHNGSHRTVAGFSNVELPQCIIPSSYIKRTDEGGEAEFIFGTYNMIDAAAEKRNGDEVYTLVDSQGLPYNWDALEMQWRYLYDTQLKVSPEELPLVITMPATNGKPDMAILERYYELAFDKLNVPVFQIVIEPLAIALSMGKSSAFVIDIGASGCNVTPIIDGIVVKNAVVRSKFGGDFLDFQVHERLAPLIKEENDMENMADEQKRSTDVWYEASTWIQQFKSTMLQVSEKDLFELERYYKEQADIYAKQQEQLKQMDQQLQYTALTGSPNNPLVQKKNFLFKPLNKTLTLDLKECYQFAEYLFKPQLISDKFSPEDGLGPLMAKSVKKAGASINSMKANTSTNPNGLGTSHINTNVGDNNSTASSSNISPEQVYSLLLTNVIITGSTSLIEGMEQRIIKELSIRFPQYKLTTFANQVMMDRKIQGWLGALTMANLPSWSLGKWYSKEDYETLKRDRKQSQATNATN
B3: Swi1 (natural protein)
chain: MDFFNLNNNNNNNNTTTTTTTTNNNNTNNNNTNNNNNPANNTNNNNSTGHSSNTNNNTNNNNTNTGASGVDDFQNFFDPKPFDQNLDSNNNNSNSNNNDNNNSNTVASSTNFTSPTAVVNNAAPANVTGGKAANFIQNQSPQFNSPYDSNNSNTNLNSLSPQAILAKNSIIDSSNLPLQAQQQLYGGNNNNNSTGIANDNVITPHFITNVQSISQNSSSSTPNTNSNSTPNANQQFLPFNNSASNNGNLTSNQLISNYAASNSMDRSSSASNEFVPNTSDNNNNSNNHNMRNNSNNKTSNNNNVTAVPAATPANTNNSTSNANTVFSERAAMFAALQQKQQQRFQALQQQQQQQQNQQQQNQQPQQQQQQQQNPKFLQSQRQQQQRSILQSLNPALQEKISTELNNKQYELFMKSLIENCKKRNMPLQSIPEIGNRKINLFYLYMLVQKFGGADQVTRTQQWSMVAQRLQISDYQQLESIYFRILLPYERHMISQEGIKETQAKRIFLQQFLQELLKKVQQQQQAAALANANNNINSASSAPTPAAPGASVPATAAPGTEAGIVPVSANTPKSLNSNININVNNNNIGQQQVKKPRKQRVKKKTKKELELERKEREDFQKRQQKLLEDQQRQQKLLLETKLRQQYEIELKKLPKVYKRSIVRNYKPLINRLKHYNGYDINYISKIGEKIDSNKPIFLFAPELGAINLHALSMSLQSKNLGEINTALNTLLVTSADSNLKISLVKYPELLDSLAILGMNLLSNLSQNVVPYHRNTSDYYYEDAGSNQYYVTQHDKMVDKIFEKVNNNATLTPNDSNDEKVTILVDSLTGNQLPTPTPTEMEPDLDTECFISMQSTSPAVKQWDLLPEPIRFLPNQFPLKIHRTPYLTSLKKIKDEIDDPFTKINTRGAEDPKVLINDQLSTISMILRNISFSDNNSRIMSRNFYLKRFISDLLWLVLIHPENFTCNRKILNFKKDLVIVLSNISHLLEIASSIDCLLILILVISFGQPKLNPMASSSSFGSESLTFNEFQLQWGKYQTFGVDILAKLFSLEKPNLNYFKSILLNKNTGNNLYDRNSNNNHKDKKLLRRLLNLYNDNNKNNNNRHNLLNDVVSFLFSAIPLQQVLSQSADPSLLIDQFSPVISQSLTSILVIVQKILPLSNEVFEISENNSDSNSNNNGNKDSSFNFNKNLPFVWLSSEENIGSGLLKLSEIILNINNSTSKNTLLQQQNYSKVLLPSINISCVQLIKCLVEKSICFENCLNNDPEILKKIASIPNLFPTDLEIFQLFTNPSVDIQIINQYQLLYNLKNDILTNLE
B4: Rtt102 (natural protein)
chain: MDPQTLITKANKVSYYGNPTSKESWRYDWYQPSKVSSNVQQPQQQLGDMENNLEKYPFRYKTWLRNQEDEKNLQRESCEDILDLKEFDRRILKKSLMTSHTKGDTSKATGAPSANQGDEALSVDDIRGAVGNSEAIPGLSAGVNNDNTKESKDVKMN

Molecular target: Snf2 (S. cerevisiae, UniProt P22082 1-1703)
Test: cryo-EM structure

Sequence of Snf2 (P22082 whole entry): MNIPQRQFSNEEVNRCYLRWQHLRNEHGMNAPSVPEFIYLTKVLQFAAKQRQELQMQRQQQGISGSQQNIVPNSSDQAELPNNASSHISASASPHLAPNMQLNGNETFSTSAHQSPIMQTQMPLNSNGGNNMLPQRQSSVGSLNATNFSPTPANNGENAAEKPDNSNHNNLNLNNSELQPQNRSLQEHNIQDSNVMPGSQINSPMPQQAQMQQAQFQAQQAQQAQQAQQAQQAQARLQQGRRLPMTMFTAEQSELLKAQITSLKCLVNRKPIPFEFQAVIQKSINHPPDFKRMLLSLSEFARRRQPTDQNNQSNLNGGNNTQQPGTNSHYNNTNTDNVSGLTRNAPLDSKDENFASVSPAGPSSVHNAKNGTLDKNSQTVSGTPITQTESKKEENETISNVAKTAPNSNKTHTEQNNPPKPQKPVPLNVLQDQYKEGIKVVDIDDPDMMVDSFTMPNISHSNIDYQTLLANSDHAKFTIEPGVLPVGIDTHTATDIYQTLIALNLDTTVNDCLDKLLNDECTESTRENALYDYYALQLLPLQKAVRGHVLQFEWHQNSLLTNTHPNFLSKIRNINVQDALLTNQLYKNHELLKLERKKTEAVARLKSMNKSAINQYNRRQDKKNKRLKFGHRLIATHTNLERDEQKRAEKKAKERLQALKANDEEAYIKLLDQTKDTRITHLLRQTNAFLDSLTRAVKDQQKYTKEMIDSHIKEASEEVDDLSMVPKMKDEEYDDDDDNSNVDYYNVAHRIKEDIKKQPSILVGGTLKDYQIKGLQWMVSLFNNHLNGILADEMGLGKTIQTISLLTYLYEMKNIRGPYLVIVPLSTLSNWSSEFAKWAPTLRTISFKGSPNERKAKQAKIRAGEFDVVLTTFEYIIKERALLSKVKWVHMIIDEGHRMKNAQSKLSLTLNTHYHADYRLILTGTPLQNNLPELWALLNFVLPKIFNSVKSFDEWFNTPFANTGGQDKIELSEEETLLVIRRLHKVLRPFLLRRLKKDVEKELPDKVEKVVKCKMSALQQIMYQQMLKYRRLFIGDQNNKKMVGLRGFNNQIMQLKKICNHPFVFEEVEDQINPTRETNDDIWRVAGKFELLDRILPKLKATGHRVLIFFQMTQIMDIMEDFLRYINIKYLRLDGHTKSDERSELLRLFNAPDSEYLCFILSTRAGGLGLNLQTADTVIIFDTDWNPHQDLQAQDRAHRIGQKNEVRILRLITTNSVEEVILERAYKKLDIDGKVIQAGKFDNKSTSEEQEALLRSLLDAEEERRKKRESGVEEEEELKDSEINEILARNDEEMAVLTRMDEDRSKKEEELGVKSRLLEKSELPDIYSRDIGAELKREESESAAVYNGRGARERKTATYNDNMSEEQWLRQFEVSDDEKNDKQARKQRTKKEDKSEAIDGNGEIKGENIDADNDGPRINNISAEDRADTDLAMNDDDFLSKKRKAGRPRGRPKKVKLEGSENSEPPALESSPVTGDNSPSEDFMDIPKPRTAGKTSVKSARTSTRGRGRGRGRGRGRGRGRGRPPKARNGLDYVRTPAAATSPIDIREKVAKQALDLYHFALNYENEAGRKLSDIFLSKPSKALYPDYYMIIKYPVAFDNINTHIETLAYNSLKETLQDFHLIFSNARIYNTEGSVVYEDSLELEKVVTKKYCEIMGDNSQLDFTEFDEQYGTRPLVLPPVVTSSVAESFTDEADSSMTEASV

Binding result, binds:
B1
B2
B3
B4
